This is an account of results in patent US11028174 (LEPU BIOPHARMA, dated 2021).

The target of assay [1] is PD-L1 on PD-L1 target cells (Homo sapiens (Human)) (UniProt Q9NZQ7). Put plainly: cell-based or functional assay.
The target in assay [2] is recombinant human TGF-β (human) (UniProt P01137). Nature of the assay: cell-based or functional assay.
Assay [3] concerns the target mouse PD-L1 protein (mouse, UniProt Q9EP73 19-239, limits assumed). Put plainly: ELISA, coated mouse PD-L1. Here is the method:
(§1) ELISA testing was carried out to evaluate the binding of chimeric antibodies to human PD-L1, mouse PD-L1, rat PD-L1, and cynomolgus PD-L1, respectively.
(§2) Briefly, microtiter plates were coated with human, mouse, rat and cynomolgus PD-L1 proteins at 0.5 µg/ml in PBS, 100 µl/well at 4° C. overnight, then blocked with 150 µl/well of 1% BSA. Three-fold dilutions of chimeric antibodies starting from 10 µg/ml were added to each well and incubated for 1 hour at 37° C. The plates were washed with PBS/Tween and then incubate with mouse-anti-human IgG Fab antibody conjugated with Horse Radish Peroxidase (HRP) for 30 mins at 37° C. After washing, the plates were developed with TMB substrate and analyzed by spectrophotometer at OD 450 nm.

Assay [4] concerns the target rat PD-L1 protein (rat, UniProt D4AE25 19-239). Nature of the assay: ELISA, coated rat PD-L1. Here is the method: as §1, §2

mouse PD-L1 protein, sequence (Q9EP73 19-239 limits assumed): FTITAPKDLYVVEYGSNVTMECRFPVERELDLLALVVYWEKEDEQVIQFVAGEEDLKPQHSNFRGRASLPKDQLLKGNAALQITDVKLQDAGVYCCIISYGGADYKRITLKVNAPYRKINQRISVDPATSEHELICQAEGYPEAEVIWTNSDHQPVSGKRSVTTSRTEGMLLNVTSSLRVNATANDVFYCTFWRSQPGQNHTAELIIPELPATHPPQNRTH
rat PD-L1 protein, sequence (D4AE25 entry or part of it limits assumed): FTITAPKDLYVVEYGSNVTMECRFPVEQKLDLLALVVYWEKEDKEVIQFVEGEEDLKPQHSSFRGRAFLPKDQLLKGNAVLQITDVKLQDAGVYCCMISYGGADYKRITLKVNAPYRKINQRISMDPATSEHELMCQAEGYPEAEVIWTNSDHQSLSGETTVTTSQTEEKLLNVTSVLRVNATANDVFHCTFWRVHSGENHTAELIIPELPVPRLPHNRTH
PD-L1 on PD-L1 target cells (Homo sapiens (Human)), sequence (Q9NZQ7 19-290 limits assumed): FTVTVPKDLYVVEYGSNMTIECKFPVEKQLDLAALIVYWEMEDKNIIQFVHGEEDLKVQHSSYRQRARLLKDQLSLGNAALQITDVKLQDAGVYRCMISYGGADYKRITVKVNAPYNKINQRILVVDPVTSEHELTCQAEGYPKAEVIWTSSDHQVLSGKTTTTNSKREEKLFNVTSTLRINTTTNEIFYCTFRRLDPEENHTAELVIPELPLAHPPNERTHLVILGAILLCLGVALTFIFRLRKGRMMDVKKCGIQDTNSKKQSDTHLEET
recombinant human TGF-β (human), sequence (P01137 279-390 limits assumed): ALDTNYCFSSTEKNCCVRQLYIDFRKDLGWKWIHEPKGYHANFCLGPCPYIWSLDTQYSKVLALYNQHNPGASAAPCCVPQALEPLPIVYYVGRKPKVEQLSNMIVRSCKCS

In turn, M7824 (bintrafusp alfa) returned an NFAT-RE-mediated luminescence, PD1 effector cells co-cultured with PD-L1 target cells in assay [1] of 0.85 nM. Further, the TGF-β SMAD luciferase reporter assay in transfected 293 cells in assay [2] is 0.0669 nM.

B1: 89C10H8 chimeric mAb (antibody, V domains shown)
VH: EVQLVESGGGLVQPGRSLTLSCVASGFTFSNYWMTWIRQAPGKGLEWVASITNTGSSTFYPDSVKGRFTISRDNTRSTLFLQINSLRSEDTATYYCTRDTTIAPFDYWGQGVMVTVSS
VL: DIQMTQSPSFLSASVGDRVTITCKASQNLNEYLNWYQQKLGEAPKRLIYKTNTLQAGIPSRFSGSGSGIDYTLTISSLQPEDVATYFCSQYNSGNTFGAGTKLELK
notes: also called 89C10H8-chimera
As for B1, the binding result in assay [3] and in assay [4] was “no binding (tested: starting from 10 µg/ml)” each time.

B2: 47C6A3 chimeric mAb (antibody, V domains shown)
VH: DVQLQESGPGLVKPSQSLSLTCTVTGYSITSDYAWNWIRQFPGNKLEWMGYIIYSGSTSYNPSLKSRISITRDTSKNQFFLQLNSVTTEDTATYYCARSTMIATNWFAYWGQGTLVTVSA
VL: DIVMTQSHKFMSTSVVDRVSITCKASQDVSLAVAWYQQKPGQSPKLLIYWASTRHTGVPDRFTGSGSGTDFALTISSVQAEDLALYYCQQHYITPWTFGGGTKLEIK
notes: also called 47C6A3-chimera
B2: the binding result in assay [3] and in assay [4] was “no binding (tested: starting from 10 µg/ml)” throughout.

B3: 67F3G7 chimeric mAb (antibody, V domains shown)
VH: QVKLLQSGAALVKPGASVKMSCKASGYIFTDFWVSWVKQSHEKSLEWIGEIYPNSGVSRYNEKFKGRATMTVDKSTSTAYLELSRLTSEDSAIYYCTKYFGYTYWFGYWGQGTLVTVSS
VL: DTVLTQSPALAVSLGQRITISCRASKSVSTYMHWYQQRSGLQPKLLIYSASHLESGVPSRFSGSGSGTDFTLTIDPVEADDIANYYCQQSNELPVTFGSGTKLEIK
notes: also called 67F3G7-chimera
On to B3, for which the binding result in assay [3] and in assay [4] was “no binding (tested: starting from 10 µg/ml)” each time.
